From patent publication US20210163581A1 (ALAMAB THERAPEUTICS, published 2021)
Blank lines part the entries; values can stand above or below the binder they belong to.

Experiments:
CD64 [1] = target: T1, CD64 (UniProt P12314 16-288); assay: SPR Biacore 8K, CD64 captured by anti-His antibody, antibody as analyte, 1:1 binding fit
T1 construct: also called FCRI
Protocol: 2 μg/mL CD64 in running buffer (1×HBS-EP+) was injected to Fc2 of channel 1-4 at a flow rate of 10 μL/min for 30 s. 6 concentrations (40, 20, 10, 5, 2.5 and 1.25 nM) of analyte 20170905-Ab #C-02, 20170905-Ab #D-02, 20170908-Ab #G-02, 20170920-Ab #H-02 and running buffer were injected orderly to Fc1-Fc2 of channel 1-4 at a flow rate of 30 μL/min for an association phase of 180, followed by 400 dissociation. Repeat 6 cycles of capturing ligand and running analyte according to analyte concentrations in ascending order. 10 mM glycine pH 1.5 as regeneration buffer was injected following every dissociation phase.
(§1) Surface channels Fc1 without capturing ligand was used as control surface for reference subtraction. Final data of each interaction w as deducted from reference channel and buffer channel data. The experimental data of 20170905-Ab #C-02, 20170905-Ab #D-02, 20170908-Ab #G-02, 20170920-Ab #H-02 binding to CD64 was fitted by 1:1 binding mode. The 10240 nM curves of analyte 20170907-Ab #K-02, 20170908-Ab #L-02, 20170915-Ab #O-02, 20170919-Ab #P-02, 20170919-Ab #S-02 and 20170920-Ab #T-02 were removed to allow a better fit.

C1q [2] = target: T2, C1q (UniProt P02745 23-245; P02746 28-253; P02747 29-245); assay: ELISA, antibody coated at 3 µg/mL, C1q titrated
T2 construct: also called Clq
T2 sequence (P02745 23-245, chain 1 of 3): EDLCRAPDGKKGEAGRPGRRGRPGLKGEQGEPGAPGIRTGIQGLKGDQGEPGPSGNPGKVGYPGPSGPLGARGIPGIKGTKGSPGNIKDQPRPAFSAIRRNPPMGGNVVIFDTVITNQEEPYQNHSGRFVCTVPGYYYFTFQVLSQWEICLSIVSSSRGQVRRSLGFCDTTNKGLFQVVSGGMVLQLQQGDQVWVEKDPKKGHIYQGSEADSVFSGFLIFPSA
T2 sequence (P02746 28-253, chain 2 of 3): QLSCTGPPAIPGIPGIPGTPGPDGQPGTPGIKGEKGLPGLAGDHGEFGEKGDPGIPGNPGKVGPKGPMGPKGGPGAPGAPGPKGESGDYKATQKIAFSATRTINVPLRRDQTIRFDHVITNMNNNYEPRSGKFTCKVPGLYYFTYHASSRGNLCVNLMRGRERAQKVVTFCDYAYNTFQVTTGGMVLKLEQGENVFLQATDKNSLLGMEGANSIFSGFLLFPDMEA
T2 sequence (P02747 29-245, chain 3 of 3): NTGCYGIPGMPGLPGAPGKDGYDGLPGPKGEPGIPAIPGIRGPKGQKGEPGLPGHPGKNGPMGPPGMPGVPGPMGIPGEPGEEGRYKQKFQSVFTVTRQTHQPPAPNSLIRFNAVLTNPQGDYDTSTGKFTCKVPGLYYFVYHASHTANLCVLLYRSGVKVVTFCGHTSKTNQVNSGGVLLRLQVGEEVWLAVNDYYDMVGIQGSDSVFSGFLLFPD
Protocol: (§2) Plates (Nunc) were coated with antibodies at 3 μg/mL overnight at 4° C. After blocking and washing, Clq was half-log titrated in blocking buffer (600, 189.75, 60.01, 18.98, 6.00, 1.90, 0.60, 0.19, 0.06 and 0.02 μg/mL) and incubated at room temperature for 2 h. The plates were then washed and subsequently incubated with secondary antibody Sheep anti-human Clq Ab-HRP for 1 h. After washing, TMB substrate was added and the interaction was stopped by 2M HCl.

human FcRn = target: T3, human FcRn (human, UniProt P55899 24-297; P61769 21-119); assay: SPR Biacore 8K, antibody amine-coupled to CM5, FcRn as analyte, pH 6.0, steady state affinity fit
T3 construct: The b2m chain is my addition
Protocol: The activator was prepared by mixing 400 mM EDC and 100 mM NHS (GE) immediately prior to injection. The CM5 sensor chip was activated for 420 s with the mixture at a flow rate of 10 μL/min. 5 μg/mL of antibodies in 10 mM NaAc (pH 5.5) were then injected to Fc2 of channel 1-8 respectively at a flow rate of 10 μL/min for 60 s. The relative Fc1 was blocked. The chip w as deactivated by 1 M ethanolamine-HCl (GE) at a flow rate of 10 μL/min for 420 s.
Analyte FcRn was injected to channel 1-8 respectively. 8 concentrations of FcRn (0, 93.75, 187.5, 375, 750, 1500, 3000 and 6000 nM) were monitored at a flow rate of 30 μL/min for an association phase of 60 s, followed by 90 s dissociation. After each cycle of interaction analysis, the sensor chip surface was regenerated with 1×PBS (pH 7.4) at a flow rate of 10 μL/min for 30 s.
Surface channels Fc1 without immobilized antibodies were used as control surface for reference subtraction. Final data of each interaction was deducted from reference channel and buffer channel data.

[3] = target: T4, Cx43 (peptide used in the Biacore affinity assay of Example 1); assay: SPR Biacore T200, antibody and Cx43 peptide; format and peptide not given
T4 construct: also called connexin 43; PEP1 (914)

FcγRIIa = target: T5, FcγRIIa (UniProt P12318 36-218, limits assumed); assay: SPR Biacore 8K, receptor captured by anti-His antibody, antibody as analyte, steady state affinity fit; unit inferred
T5 construct: also called FCRIIa
T5 sequence (looked up): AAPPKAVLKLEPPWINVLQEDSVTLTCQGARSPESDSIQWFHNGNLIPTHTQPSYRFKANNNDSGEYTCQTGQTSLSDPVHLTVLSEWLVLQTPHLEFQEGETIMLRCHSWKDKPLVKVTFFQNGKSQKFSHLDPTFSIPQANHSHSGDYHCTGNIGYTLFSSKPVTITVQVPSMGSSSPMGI
Protocol: 1 μg/mL FcγRIIa, FcγRIIb, FcγRIIIa, or FcγRIIIb in running buffer (1×HBS-EP+) was injected to Fc2 of channel 1-8 at a flow rate of 10 μL/min for 15 s. Analytes were injected to channel 1-8 respectively. A series of analyte concentrations (seeing Table 3 below) were monitored at a flow rate of 30 μL/min for an association phase of 60 s, followed by 90 s dissociation. 10 mM glycine pH 1.5 as regeneration buffer was injected following every dissociation phase.
Surface channels Fc1 without capturing ligand was used as control surface for reference subtraction. Final data of each interaction was deducted from reference channel and buffer channel data. The experimental data of antibodies binding to FcγRIIa, FcγRIIb, FcγRIIIa, and FcγRIIIb was fitted by steady state affinity mode and shown in Table 4 below.

C1q [4] = target: T2, C1q; assay: ELISA, antibody coated at 3 µg/mL, C1q titrated, anti-human C1q-HRP detection
Protocol: as §2

CD64 [5] = target: T1, CD64; assay: SPR Biacore 8K, CD64 captured by anti-His antibody, antibody as analyte, steady state affinity fit; steady state affinity fit; no ka/kd
Protocol: (§3) 2 μg/mL CD64 in running buffer (1×HBS-EP+) was injected to Fc2 of channel 1-6 at a flow rate of 10 μL/min for 30 s. […] Repeat 8 cycles of capturing ligand and running analyte according to analyte concentrations in ascending order. 10 mM glycine pH 1.5 as regeneration buffer was injected following every dissociation phase.
as §1

CD64 [6] = target: T1, CD64; assay: SPR Biacore 8K, CD64 captured by anti-His antibody, antibody as analyte, steady state affinity fit
Protocol: as §3, §1

T1 sequence (P12314 16-288 limits assumed): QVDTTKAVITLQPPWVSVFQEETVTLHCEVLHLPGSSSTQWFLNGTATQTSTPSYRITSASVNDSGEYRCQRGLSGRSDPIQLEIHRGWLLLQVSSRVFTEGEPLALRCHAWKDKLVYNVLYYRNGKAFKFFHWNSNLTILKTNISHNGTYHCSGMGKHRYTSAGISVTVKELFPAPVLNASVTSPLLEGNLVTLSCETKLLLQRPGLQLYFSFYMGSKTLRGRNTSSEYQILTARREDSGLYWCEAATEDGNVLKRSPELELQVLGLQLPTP

B1: Ab#H (antibody, human IgG4 S228P, kappa)
heavy: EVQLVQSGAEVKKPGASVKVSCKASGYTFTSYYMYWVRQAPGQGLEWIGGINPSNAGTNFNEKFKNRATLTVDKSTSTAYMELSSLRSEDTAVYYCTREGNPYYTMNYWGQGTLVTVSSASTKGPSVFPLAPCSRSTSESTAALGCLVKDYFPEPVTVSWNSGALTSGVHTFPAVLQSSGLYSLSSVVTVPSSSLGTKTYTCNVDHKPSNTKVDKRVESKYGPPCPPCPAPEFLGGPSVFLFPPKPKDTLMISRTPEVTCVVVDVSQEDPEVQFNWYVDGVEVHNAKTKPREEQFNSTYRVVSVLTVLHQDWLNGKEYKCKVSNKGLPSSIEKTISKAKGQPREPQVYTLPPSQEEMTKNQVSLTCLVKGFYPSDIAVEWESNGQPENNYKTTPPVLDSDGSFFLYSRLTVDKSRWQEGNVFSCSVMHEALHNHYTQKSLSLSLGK
light: DVVMTQSPLSLPVTIGQPASISCKSSQSLLESDGKTYLNWLQQRPGQSPRRLIYLVSKLDSGVPDRFSGSGSGTDFTLKISRVEAEDVGVYYCWQGTHFPWTFGGGTKVEIKRTVAAPSVFIFPPSDEQLKSGTASVVCLLNNFYPREAKVQWKVDNALQSGNSQESVTEQDSKDSTYSLSSTLTLSKADYEKHKVYACEVTHQGLSSPVTKSFNRGEC
notes: also called 20170920-Ab #H-02; Mab H
Kd (CD64 [1]): 5.73 nM | koff (CD64 [1]): 0.00318 s⁻¹ | kon (CD64 [1]): 554000 M⁻¹ s⁻¹ | binding result (C1q [2]): no binding | Kd (human FcRn): 2610 nM | Kd [3]: 46.5 nM

B2: Ab#D (antibody, human IgG1, kappa)
heavy: not shown
light: B1 light
notes: Light chain tie is indirect; also called 20170905-Ab #D-02
Kd (FcγRIIa): 3390 nM | Kd (CD64 [1]): 1.92 nM | koff (CD64 [1]): 0.000925 s⁻¹ | kon (CD64 [1]): 482000 M⁻¹ s⁻¹ | Kd (C1q [4]): 75 nM | Kd (human FcRn): 2250 nM | Kd [3]: 198 nM

The next lines start with the values.

Kd (CD64 [5]): 1620 nM | Kd (human FcRn): 2600 nM | Kd [3]: 10.1 nM
B3: Ab#L (antibody, human IgG1, kappa, L234A L235A)
heavy: not shown
light: B1 light
notes: also called 20170908-Ab #L-02

Kd (CD64 [6]): 3050 nM | binding result (C1q [2]): no binding | Kd (human FcRn): 2560 nM | Kd [3]: 0.582 nM
B4: Ab#T (antibody, human IgG4 S228P, kappa, F234A L235A)
heavy: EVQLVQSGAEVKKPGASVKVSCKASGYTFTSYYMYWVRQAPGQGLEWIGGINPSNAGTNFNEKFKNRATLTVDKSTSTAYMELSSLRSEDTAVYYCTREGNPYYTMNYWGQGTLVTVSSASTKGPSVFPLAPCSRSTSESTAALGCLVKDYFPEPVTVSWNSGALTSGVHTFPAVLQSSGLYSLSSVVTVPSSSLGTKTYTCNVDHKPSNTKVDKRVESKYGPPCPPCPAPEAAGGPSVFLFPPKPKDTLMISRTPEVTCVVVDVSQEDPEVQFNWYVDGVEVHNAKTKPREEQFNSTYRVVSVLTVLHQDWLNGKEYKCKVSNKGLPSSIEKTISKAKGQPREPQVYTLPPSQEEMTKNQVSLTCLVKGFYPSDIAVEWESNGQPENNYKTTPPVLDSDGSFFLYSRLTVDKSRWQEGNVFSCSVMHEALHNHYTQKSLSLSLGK
light: B1 light
notes: also called 20170920-Ab #T-02

Kd (CD64 [6]): 2790 nM | binding result (C1q [2]): no binding | Kd (human FcRn): 2550 nM | Kd [3]: 8.58 nM
B5: Ab#P (antibody, human IgG4 S228P, kappa)
heavy: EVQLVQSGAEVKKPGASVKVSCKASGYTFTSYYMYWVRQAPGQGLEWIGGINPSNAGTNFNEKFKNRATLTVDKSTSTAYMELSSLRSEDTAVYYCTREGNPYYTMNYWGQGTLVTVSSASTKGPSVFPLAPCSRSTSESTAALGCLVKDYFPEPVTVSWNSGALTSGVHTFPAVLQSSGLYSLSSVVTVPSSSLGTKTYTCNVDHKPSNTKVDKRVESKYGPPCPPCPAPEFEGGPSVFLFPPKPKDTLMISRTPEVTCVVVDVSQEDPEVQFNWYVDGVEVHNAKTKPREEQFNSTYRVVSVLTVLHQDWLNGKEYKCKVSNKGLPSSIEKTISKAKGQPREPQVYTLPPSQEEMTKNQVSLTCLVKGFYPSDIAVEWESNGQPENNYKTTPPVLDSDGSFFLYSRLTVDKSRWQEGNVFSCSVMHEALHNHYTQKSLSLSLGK
light: B1 light
